Test results from PMC4966504 (mAbs, 2015).
Positions count from the first letter of the chain named. In names and notes the source's numbering stands.

Columns and labels:
Test in all cases: flow cytometry on cells
[1] = molecular target: human CXCR4, endogenous on 293X cells (Homo sapiens, UniProt P61073)
human CXCR4 A175D = human CXCR4 A175D (Homo sapiens, UniProt P61073-1, A175D)
human CXCR4 E179A = human CXCR4 E179A (Homo sapiens, UniProt P61073-1, E179A)
[2] = molecular target: human CXCR4 (G-protein C-X-C chemokine receptor 4), expressed on CHO cells (Homo sapiens, UniProt P61073-1)
[3] = molecular target: human CXCR4 D181DRYI185A5 (Homo sapiens, UniProt P61073, D181DRYI185A5)
human CXCR4 P191A = human CXCR4 P191A (Homo sapiens, UniProt P61073-1, P191A)
human CXCR4 L194W195A2 = human CXCR4 L194W195A2 (Homo sapiens, UniProt P61073, L194W195A2)
human CXCR4 N176VSE179A4 = human CXCR4 N176VSE179A4 (Homo sapiens, UniProt P61073, N176VSE179A4)
human CXCR4 D182A = human CXCR4 D182A (Homo sapiens, UniProt P61073-1, D182A)
human CXCR4 D187RFY190A4 = human CXCR4 D187RFY190A4 (Homo sapiens, UniProt P61073, D187RFY190A4)
human CXCR4 A180D = human CXCR4 A180D (Homo sapiens, UniProt P61073-1, A180D)
human CXCR4 D181A = human CXCR4 D181A (Homo sapiens, UniProt P61073-1, D181A)

B1: MEDI3185 variant VH W52/Y52A/D53 to Ala (CDR2H) (antibody, V domains shown)
VH: QVQLVESGGGVVQPGRSLRLSCAASGFTFSNYVMHWVRQAPGKGLEWVAVIAAAGSNKYYADSVKGRFTISRDNSKNTLSLQMNSLRAEDTAVYYCERGEGYYGSGSRYRGYYYGMDVWGQGTTVTVSS
VL: DIQMTQSPSSLSASVGDRVTITCRASQGIRTDLGWYQQKPGKAPKRLIYAASSLQSGVPSRFSGSGSGTEFTLTISSLQPEDFATYYCLQHNSYPRTFGQGTKVEIK
B1: binds [1].

B2: MEDI3185 (antibody, V domains shown)
VH: B1 VH with A52W, A53Y, A54D
VL: B1 VL
B2 was tested, and the Kd (human CXCR4 A175D) was 0.21 nM, the Kd (human CXCR4 E179A) was 0.25 nM and the Kd [2] was 0.32 nM. The Kd [3] was 0.28 nM, the Kd (human CXCR4 P191A) was 0.36 nM and the Kd (human CXCR4 L194W195A2) was 0.3 nM. The Kd (human CXCR4 N176VSE179A4) was 0.37 nM, the Kd (human CXCR4 D182A) was 0.32 nM and the Kd (human CXCR4 D187RFY190A4) was 0.37 nM. The Kd (human CXCR4 A180D) was 0.32 nM and the Kd (human CXCR4 D181A) was 0.31 nM.

B3: MEDI3185 variant VH G54/S55/N56 to Ala (CDR2H) (antibody, V domains shown)
VH: B1 VH with A52W, A53Y, A54D, G55A, S56A, N57A
VL: B1 VL
B3: binds [1].

B4: MEDI3185 variant VL A50/A51 to Gly, S52 to Ala (CDR2L) (antibody, V domains shown)
VH: B1 VH with A52W, A53Y, A54D
VL: B1 VL with A50G, A51G, S52A
B4: binds [1].

B5: MEDI3185 variant VL N92/S93/Y94 to Ala (CDR3L) (antibody, V domains shown)
VH: B1 VH with A52W, A53Y, A54D
VL: B1 VL with N92A, S93A, Y94A
B5: binds [1].

B6: MEDI3185 variant VL P95 to Ala (CDR3L) (antibody, V domains shown)
VH: B1 VH with A52W, A53Y, A54D
VL: B1 VL with P95A
B6: binds [1].

B7: MEDI3185 variant VH N31A/Y32A/V33A (CDR1H) (antibody, V domains shown)
VH: B1 VH with N31A, Y32A, V33A, A52W, A53Y, A54D
VL: B1 VL
B7: binds [1].

B8: MEDI3185 variant VL Q27A/G28A/I29A (CDR1L) (antibody, V domains shown)
VH: B1 VH with A52W, A53Y, A54D
VL: B1 VL with Q27A, G28A, I29A
B8: binds [1].
